Test results: publication PMC11252000, “MFSD1 with its accessory subunit GLMP functions as a general dipeptide uniporter in lysosomes” (Nature Cell Biology, 2024)
Where a SMILES comes first, the peptide text is derived from it.

What was measured:
[1] = molecular target: T1, MFSD1 (MFSD1WT, mmMFSD1, MFSD1-strep) (Mus musculus, UniProt Q9DC37, Y56A); assay: proteoliposome uptake, pyranine fluorescence; type: biochemical; settings: pH 6.8, 22 °C, valinomycin; 2.5 mM peptide
T1 construct: full length; N-terminal Twin-Strep-tag + HRV 3C site; Expi293F; purified in DDM/CHS; liposomes POPE:POPG:CHS for transport
T1 sequence (Q9DC37 1-464 Y56A): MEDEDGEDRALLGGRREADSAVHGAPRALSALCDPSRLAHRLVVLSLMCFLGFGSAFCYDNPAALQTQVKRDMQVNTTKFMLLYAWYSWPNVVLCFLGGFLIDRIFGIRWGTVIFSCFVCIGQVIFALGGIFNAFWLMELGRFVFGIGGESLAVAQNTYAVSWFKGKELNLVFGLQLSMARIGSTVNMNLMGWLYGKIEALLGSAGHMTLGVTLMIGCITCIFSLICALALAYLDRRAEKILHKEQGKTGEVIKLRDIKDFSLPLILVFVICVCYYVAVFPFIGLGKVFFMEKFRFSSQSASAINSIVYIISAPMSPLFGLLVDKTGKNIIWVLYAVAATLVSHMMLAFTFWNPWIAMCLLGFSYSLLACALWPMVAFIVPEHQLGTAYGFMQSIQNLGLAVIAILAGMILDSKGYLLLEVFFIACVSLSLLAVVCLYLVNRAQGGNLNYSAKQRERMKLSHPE

[2] = molecular target: MFSD1-strep (mouse major facilitator superfamily domain containing 1 protein with N-terminal Twin-Strep-tag) (mouse) (UniProt Q9DC37)
[3] = molecular target: T2, GLMP–MFSD1 (GLMP–MFSD1-strep fusion) (Mus musculus, UniProt Q9DC37); assay: cryo-EM, […] Å map with extra density; type: binding; settings: 20 mM His–Ala; central cavity, outward-open; peptide not unambiguously placed; model 8R8Q (called apo) built in this map
T2 construct: single-chain fusion GLMP-GSAGSAAGSGEF-MFSD1; C-terminal 3C site + Twin-Strep-tag; Expi293F; DDM/CHS; with Glycosylated lysosomal membrane protein
T2 sequence (Q9DC37 1-464): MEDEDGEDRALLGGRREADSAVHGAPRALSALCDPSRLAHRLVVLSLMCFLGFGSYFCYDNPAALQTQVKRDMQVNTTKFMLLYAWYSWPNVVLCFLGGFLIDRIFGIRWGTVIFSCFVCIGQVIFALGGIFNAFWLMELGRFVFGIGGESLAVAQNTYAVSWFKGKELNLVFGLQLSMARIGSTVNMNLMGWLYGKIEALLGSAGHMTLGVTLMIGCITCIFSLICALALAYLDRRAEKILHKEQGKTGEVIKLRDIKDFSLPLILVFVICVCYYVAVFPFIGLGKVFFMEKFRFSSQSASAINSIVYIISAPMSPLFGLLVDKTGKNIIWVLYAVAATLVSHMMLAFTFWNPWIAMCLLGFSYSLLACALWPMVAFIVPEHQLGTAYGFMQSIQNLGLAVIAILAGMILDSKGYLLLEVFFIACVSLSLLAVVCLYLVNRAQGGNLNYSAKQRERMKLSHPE
T2 sequence (Q9JHJ3 36-404 partner): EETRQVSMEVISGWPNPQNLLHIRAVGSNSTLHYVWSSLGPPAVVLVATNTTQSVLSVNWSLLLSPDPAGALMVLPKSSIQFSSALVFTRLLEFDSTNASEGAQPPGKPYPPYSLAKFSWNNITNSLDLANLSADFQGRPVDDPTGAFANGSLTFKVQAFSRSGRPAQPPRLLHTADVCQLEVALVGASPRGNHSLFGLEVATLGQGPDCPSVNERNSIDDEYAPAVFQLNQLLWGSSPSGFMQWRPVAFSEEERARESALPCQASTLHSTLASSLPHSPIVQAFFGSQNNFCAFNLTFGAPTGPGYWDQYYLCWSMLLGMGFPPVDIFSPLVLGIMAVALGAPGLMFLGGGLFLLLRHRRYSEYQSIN

[4] = molecular target: T3, MFSD1 (MFSD1WT, mmMFSD1, MFSD1-strep) (Mus musculus, UniProt Q9DC37); assay: nanoDSF thermal shift titration; type: binding
T3 construct: full length; N-terminal Twin-Strep-tag + HRV 3C site; Expi293F; purified in DDM/CHS; liposomes POPE:POPG:CHS for transport
T3 sequence (Q9DC37 1-464): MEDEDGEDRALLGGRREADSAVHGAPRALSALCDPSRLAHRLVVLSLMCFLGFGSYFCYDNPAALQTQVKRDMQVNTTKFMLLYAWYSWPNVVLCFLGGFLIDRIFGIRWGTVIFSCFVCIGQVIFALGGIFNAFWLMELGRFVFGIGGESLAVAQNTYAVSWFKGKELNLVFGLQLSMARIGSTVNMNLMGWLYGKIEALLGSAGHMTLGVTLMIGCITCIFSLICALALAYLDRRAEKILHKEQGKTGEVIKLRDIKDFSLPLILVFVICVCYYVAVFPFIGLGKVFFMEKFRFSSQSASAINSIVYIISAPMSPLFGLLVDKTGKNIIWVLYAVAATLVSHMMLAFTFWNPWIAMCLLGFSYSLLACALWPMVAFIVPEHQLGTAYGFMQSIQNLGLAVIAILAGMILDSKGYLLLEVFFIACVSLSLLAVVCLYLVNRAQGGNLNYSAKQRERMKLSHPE

[5] = molecular target: T3, MFSD1 (MFSD1WT, mmMFSD1, MFSD1-strep); assay: nanoDSF thermal shift; type: binding; settings: 5 mM ligand, pH 7.5, DDM/CHS
[6] = substrate: C[C@H](NC(=O)[C@@H](N)CCCCN)C(=O)O; assay: TEVC current in Xenopus oocytes; type: cell-based, Mus musculus; settings: pH 5.0, −40 mV, room temperature (20 °C), hydrobromide salt
[7] = substrate: CC(C)C[C@H](N)C(=O)N[C@@H](C)C(=O)O; assay: isotope tracer uptake, LC–MS/MS of Leu(d3) in oocytes; type: cell-based, Mus musculus; settings: pH 5.0, room temperature, labelled compound, hydrochloride salt, Extended Data Fig. 4a legend gives 4.4 mM for the displayed fit
[8] = substrate: C[C@H](NC(=O)[C@@H](N)Cc1c[nH]cn1)C(=O)O; assay: proteoliposome uptake, pyranine fluorescence; type: biochemical, Mus musculus; settings: pH 6.8, 22 °C, valinomycin-driven membrane potential approx. −100 mV
[9] = substrate: N[C@@H](Cc1c[nH]cn1)C(=O)N[C@@H](CO)C(=O)O; assay: proteoliposome uptake, pyranine fluorescence; type: biochemical, Mus musculus; settings: pH 6.8, 22 °C, valinomycin-driven membrane potential approx. −100 mV
[10] = molecular target: T4, MFSD1 as it stands in the GLMP–MFSD1 fusion construct (mouse, UniProt Q9DC37 1-464); assay: cryo-EM structure; purified GLMP–MFSD1 fusion in 20 mM HEPES pH 7.5, 150 mM NaCl, 0.015% DDM, 0.0015% CHS; apo (4.2 Å) and dialysed against 20 mM His–Ala (4.1 Å); outward-open conformation; settings: both partners purified
T4 construct: mouse MFSD1, UniProt Q9DC37; C-terminal part of the fusion m3; written apart for the pair row of the structure; also called MFSD1out; source: Expi293F, transiently transfected, purified as part of GLMP–MFSD1-strep; not shown: Twin-Strep, C-terminal, kept
T4 sequence: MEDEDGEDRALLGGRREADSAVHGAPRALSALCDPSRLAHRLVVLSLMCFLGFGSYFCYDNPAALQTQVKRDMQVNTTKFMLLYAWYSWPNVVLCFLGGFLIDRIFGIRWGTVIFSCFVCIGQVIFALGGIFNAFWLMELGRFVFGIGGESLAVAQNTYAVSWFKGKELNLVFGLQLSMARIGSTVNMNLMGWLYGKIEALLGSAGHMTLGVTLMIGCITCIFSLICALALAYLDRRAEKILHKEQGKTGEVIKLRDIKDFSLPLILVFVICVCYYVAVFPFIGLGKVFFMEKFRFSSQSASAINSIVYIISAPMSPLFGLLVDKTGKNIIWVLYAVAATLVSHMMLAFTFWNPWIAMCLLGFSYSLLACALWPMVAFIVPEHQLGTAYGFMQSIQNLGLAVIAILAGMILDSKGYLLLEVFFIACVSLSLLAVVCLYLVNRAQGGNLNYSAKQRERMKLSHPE

**Q.** How did the “uptake rate vs MFSD1WT” value [1] turn out when `N[C@@H](Cc1c[nH]cn1)C(=O)N[C@@H](CO)C(=O)O` [His-Ser] (H-His-Ser-OH) was run?
**A.** ~ 50 % reduction

**Q.** How did the KM of His–Ala uptake into MFSD1 proteoliposomes (pyranine assay) [2] turn out when His–Ala dipeptide was run?
**A.** 119 µM

**Q.** `C[C@H](NC(=O)[C@@H](N)Cc1c[nH]cn1)C(=O)O` [His–Ala] (H-His-Ala-OH) was tested. Which “uptake rate vs MFSD1WT” value [1] did it give?
**A.** ~ 50 % reduction

**Q.** And the “cryo-EM, 4.1 Å map with extra density” value [3]?
**A.** revealed an additional density for GLMP–MFSD1His–Ala

**Q.** And the Kd [4]?
**A.** 6.7 ± 0.55 mM

**Q.** Which ΔTm [5] does the source give for `CC(C)C[C@H](NC(=O)[C@@H](N)CC(C)C)C(=O)O` [Leu–Leu] here?
**A.** 14 °C

B1: MFSD1–GLMP oocytes (MFSD1L11A/L12A-EmGFP + GLMPY400A-mKate2) (Mus musculus; L11A/L12A) (protein)
chain: MEDEDGEDRAAAGGRREADSAVHGAPRALSALCDPSRLAHRLVVLSLMCFLGFGSYFCYDNPAALQTQVKRDMQVNTTKFMLLYAWYSWPNVVLCFLGGFLIDRIFGIRWGTVIFSCFVCIGQVIFALGGIFNAFWLMELGRFVFGIGGESLAVAQNTYAVSWFKGKELNLVFGLQLSMARIGSTVNMNLMGWLYGKIEALLGSAGHMTLGVTLMIGCITCIFSLICALALAYLDRRAEKILHKEQGKTGEVIKLRDIKDFSLPLILVFVICVCYYVAVFPFIGLGKVFFMEKFRFSSQSASAINSIVYIISAPMSPLFGLLVDKTGKNIIWVLYAVAATLVSHMMLAFTFWNPWIAMCLLGFSYSLLACALWPMVAFIVPEHQLGTAYGFMQSIQNLGLAVIAILAGMILDSKGYLLLEVFFIACVSLSLLAVVCLYLVNRAQGGNLNYSAKQRERMKLSHPE
notes: heterodimer at plasma membrane of Xenopus laevis oocytes; lysosomal sorting mutants; EmGFP and mKate2 fusions; with Glycosylated lysosomal membrane protein
**Q.** Which Km [6] does the source give for B1 here?
**A.** 2600 ± 400 µM

**Q.** And the Km [7]?
**A.** 5600 ± 1600 µM

B2: MFSD1 (MFSD1WT, mmMFSD1, MFSD1-strep) (Mus musculus) (protein)
chain: MEDEDGEDRALLGGRREADSAVHGAPRALSALCDPSRLAHRLVVLSLMCFLGFGSYFCYDNPAALQTQVKRDMQVNTTKFMLLYAWYSWPNVVLCFLGGFLIDRIFGIRWGTVIFSCFVCIGQVIFALGGIFNAFWLMELGRFVFGIGGESLAVAQNTYAVSWFKGKELNLVFGLQLSMARIGSTVNMNLMGWLYGKIEALLGSAGHMTLGVTLMIGCITCIFSLICALALAYLDRRAEKILHKEQGKTGEVIKLRDIKDFSLPLILVFVICVCYYVAVFPFIGLGKVFFMEKFRFSSQSASAINSIVYIISAPMSPLFGLLVDKTGKNIIWVLYAVAATLVSHMMLAFTFWNPWIAMCLLGFSYSLLACALWPMVAFIVPEHQLGTAYGFMQSIQNLGLAVIAILAGMILDSKGYLLLEVFFIACVSLSLLAVVCLYLVNRAQGGNLNYSAKQRERMKLSHPE
notes: full length; N-terminal Twin-Strep-tag + HRV 3C site; Expi293F; purified in DDM/CHS; liposomes POPE:POPG:CHS for transport
**Q.** B2 was tested. Which Km [8] did it give?
**A.** 119.1 ± 59.3 µM

**Q.** What about the Km [9] of the same molecule?
**A.** 24.4 ± 13.5 µM

B3: GLMP as it stands in the GLMP–MFSD1 fusion construct (natural protein, mouse, UniProt Q9JHJ3 36-404, looked up)
chain: EETRQVSMEVISGWPNPQNLLHIRAVGSNSTLHYVWSSLGPPAVVLVATNTTQSVLSVNWSLLLSPDPAGALMVLPKSSIQFSSALVFTRLLEFDSTNASEGAQPPGKPYPPYSLAKFSWNNITNSLDLANLSADFQGRPVDDPTGAFANGSLTFKVQAFSRSGRPAQPPRLLHTADVCQLEVALVGASPRGNHSLFGLEVATLGQGPDCPSVNERNSIDDEYAPAVFQLNQLLWGSSPSGFMQWRPVAFSEEERARESALPCQASTLHSTLASSLPHSPIVQAFFGSQNNFCAFNLTFGAPTGPGYWDQYYLCWSMLLGMGFPPVDIFSPLVLGIMAVALGAPGLMFLGGGLFLLLRHRRYSEYQSIN
modifications: N-glycans on Asn85, Asn94, Asn157, Asn228 and Asn331
notes: mouse GLMP, UniProt Q9JHJ3; N-terminal part of the fusion m3; written apart for the pair row of the structure; source: Expi293F, transiently transfected, purified as part of GLMP–MFSD1-strep
**Q.** Does B3 bind [10]?
**A.** binds
